This test concerns the target mature recombinant human cathepsin O2 (human) (UniProt P43235). Kind of test: cell-based or functional assay.

mature recombinant human cathepsin O2 (human), sequence (P43235 115-329): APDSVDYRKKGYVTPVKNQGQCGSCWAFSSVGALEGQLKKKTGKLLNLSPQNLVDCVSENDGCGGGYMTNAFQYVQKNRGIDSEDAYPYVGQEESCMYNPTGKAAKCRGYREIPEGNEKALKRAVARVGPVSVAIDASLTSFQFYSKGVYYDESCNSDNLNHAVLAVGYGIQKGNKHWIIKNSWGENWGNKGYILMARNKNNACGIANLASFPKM

For the substance “chicken cystatin (from UniProt P01038 24-139)”, the % inhibition (of cathepsin O2 activity, fluorimetric Z-FR-MCA assay, 0.1 µM inhibitor) is 100%.

The values are drawn from US6544767.
